Assay results taken from patent JP2018082720A (dated 2018).
Values joined by “and” are separate entries in the source; they are usually repeats but may differ in a detail not shown here. Equal values may be shown once.

Key:
human MMP9 [1] = molecular target: T1, human MMP9 (human, UniProt P14780 20-707, limits assumed); assay: SPR
T1 construct: also called ヒトMMP9; matrix metalloproteinase-9

human MMP9 [2] = molecular target: T1, human MMP9; assay: cell-based or functional assay
rat MMP9 = molecular target: T2, rat MMP9 (rat, UniProt P50282 20-708, limits assumed); assay: ELISA
T2 construct: also called ラットMMP9; recombinant rat MMP9
T2 sequence (P50282 20-708 limits assumed): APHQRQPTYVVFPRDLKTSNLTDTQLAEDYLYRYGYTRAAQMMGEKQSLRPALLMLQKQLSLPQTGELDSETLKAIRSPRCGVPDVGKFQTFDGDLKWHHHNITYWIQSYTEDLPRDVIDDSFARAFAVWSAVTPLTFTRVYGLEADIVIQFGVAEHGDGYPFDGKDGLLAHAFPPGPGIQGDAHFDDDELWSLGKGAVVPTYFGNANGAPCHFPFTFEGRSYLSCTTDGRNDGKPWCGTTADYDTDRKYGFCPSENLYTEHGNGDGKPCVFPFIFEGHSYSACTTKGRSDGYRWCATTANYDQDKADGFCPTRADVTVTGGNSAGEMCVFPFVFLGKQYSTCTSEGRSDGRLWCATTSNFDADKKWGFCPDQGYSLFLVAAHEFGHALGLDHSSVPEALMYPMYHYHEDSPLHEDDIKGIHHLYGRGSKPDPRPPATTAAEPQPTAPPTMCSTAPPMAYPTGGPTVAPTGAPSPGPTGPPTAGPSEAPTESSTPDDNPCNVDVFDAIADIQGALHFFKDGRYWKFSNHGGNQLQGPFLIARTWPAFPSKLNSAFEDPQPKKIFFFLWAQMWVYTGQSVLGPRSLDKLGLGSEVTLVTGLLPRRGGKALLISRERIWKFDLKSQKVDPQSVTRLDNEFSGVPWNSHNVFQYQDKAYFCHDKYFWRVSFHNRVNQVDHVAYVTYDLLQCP

cynomolgus monkey MMP9 = molecular target: T3, cynomolgus monkey MMP9 (cynomolgus monkey, UniProt A0A2K5UU71 20-706); assay: ELISA
T3 construct: also called カニクイザルMMP9; recombinant cynomolgus MMP9
T3 sequence (A0A2K5UU71 entry or part of it): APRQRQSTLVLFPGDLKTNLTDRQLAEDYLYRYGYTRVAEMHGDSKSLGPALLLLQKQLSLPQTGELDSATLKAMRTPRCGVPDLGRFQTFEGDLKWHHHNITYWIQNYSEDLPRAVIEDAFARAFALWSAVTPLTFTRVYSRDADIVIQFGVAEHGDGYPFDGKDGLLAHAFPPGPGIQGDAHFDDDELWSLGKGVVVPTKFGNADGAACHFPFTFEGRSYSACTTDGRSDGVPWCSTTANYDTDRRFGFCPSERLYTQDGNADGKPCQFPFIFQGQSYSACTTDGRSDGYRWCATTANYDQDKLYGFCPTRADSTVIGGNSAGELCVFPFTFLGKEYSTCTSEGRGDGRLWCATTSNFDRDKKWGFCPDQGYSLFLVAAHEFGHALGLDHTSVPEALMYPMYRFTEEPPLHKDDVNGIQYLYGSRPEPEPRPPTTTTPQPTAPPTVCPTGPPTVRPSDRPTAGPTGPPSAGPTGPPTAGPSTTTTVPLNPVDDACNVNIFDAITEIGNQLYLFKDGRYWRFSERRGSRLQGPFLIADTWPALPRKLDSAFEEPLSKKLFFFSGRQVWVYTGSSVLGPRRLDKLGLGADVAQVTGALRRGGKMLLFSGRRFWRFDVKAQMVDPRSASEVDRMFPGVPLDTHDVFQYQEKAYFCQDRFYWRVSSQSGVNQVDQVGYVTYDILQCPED

mouse MMP9 [3] = molecular target: T4, mouse MMP9 (mouse, UniProt P41245 20-730, limits assumed); assay: cell-based or functional assay
T4 sequence (P41245 20-730 limits assumed): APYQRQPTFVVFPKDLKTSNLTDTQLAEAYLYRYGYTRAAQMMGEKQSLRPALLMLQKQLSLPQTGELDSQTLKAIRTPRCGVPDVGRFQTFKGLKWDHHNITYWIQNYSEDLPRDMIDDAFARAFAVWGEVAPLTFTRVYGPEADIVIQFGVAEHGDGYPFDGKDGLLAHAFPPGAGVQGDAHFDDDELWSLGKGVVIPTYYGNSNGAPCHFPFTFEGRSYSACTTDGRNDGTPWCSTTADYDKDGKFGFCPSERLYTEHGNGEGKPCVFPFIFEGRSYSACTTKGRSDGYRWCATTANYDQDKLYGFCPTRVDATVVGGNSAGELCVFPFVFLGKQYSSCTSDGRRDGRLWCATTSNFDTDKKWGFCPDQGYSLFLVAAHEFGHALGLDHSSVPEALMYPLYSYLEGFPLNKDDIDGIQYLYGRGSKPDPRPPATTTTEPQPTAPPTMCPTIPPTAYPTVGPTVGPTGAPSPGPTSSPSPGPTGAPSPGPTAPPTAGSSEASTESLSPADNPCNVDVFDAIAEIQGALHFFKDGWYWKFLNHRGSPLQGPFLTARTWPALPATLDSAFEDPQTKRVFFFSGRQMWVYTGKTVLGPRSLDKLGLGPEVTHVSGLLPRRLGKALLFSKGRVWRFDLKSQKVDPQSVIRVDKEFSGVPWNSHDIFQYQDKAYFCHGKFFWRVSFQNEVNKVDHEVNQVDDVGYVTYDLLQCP

mouse MMP9 [4] = molecular target: T4, mouse MMP9; assay: ELISA
human MMP9 [5] = molecular target: T1, human MMP9; assay: direct binding assay and SPR
human MMP9 [6] = molecular target: T1, human MMP9; assay: ELISA

T1 sequence (P14780 20-707 Q279R/R574P limits assumed): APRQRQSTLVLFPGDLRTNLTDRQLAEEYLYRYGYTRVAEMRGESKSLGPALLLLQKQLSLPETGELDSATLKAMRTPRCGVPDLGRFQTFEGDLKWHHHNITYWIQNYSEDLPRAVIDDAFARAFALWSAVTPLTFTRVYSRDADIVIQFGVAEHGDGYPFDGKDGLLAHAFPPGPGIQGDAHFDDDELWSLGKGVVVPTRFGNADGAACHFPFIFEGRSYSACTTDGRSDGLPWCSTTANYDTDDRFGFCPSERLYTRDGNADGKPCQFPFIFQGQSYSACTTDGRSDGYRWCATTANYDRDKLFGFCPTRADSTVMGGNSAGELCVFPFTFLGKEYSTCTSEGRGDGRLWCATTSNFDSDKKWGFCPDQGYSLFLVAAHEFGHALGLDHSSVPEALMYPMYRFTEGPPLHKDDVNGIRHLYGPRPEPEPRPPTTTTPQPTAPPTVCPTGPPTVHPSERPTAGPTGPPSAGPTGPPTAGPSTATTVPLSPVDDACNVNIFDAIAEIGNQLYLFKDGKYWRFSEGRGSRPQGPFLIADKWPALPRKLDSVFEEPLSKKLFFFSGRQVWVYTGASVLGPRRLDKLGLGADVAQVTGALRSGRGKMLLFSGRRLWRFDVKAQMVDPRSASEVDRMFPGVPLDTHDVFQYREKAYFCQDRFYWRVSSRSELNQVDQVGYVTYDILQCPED

Row | Kd (human MMP9 [1]) | IC50, MMP9-mediated cleavage of fluorogenic peptide substrate Mca-PLGL-Dpa-AR-NH2 (human MMP9 [2]) | Kd (rat MMP9) | Kd (cynomolgus monkey MMP9) | IC50, MMP9-mediated cleavage of fluorogenic peptide substrate Mca-PLGL-Dpa-AR-NH2 (mouse MMP9 [3]) | Kd (mouse MMP9 [4]) | Kd (human MMP9 [5]) | IC50, MMP9 enzyme assay under steady state (human MMP9 [2]) | Kd (human MMP9 [6]) | Binder
1 | 0.4 pM | 569 pM | < 400 pM | < 400 pM | – | – | – | – | – | AB0041 (antibody, V domains shown) VH: QVQLKESGPGLVAPSQSLSITCTVSGFSLLSYGVHWVRQPPGKGLEWLGVIWTGGTTNYNSALMSRLSISKDDSKSQVFLKMNSLQTDDTAIYYCARYYYGMDYWGQGTSVTVSS VL: DIVMTQSHKFMSTSVGDRVSITCKASQDVRNTVAWYQQKTGQSPKLLIYSSSYRNTGVPDRFTGSGSGTDFTFTISSVQAEDLAVYFCQQHYITPYTFGGGTKLEIKR
2 | – | – | – | – | 352 pM | 218 pM | – | – | – | AB0046 (antibody, V domains shown, Mouse IgG1 / kappa; also called AB0046; anti-mouse MMP9 antibody) VH: QVQLQQPGSVLVRPGASVKLSCTASGYTFTSYWMNWVKQRPGQGLEWIGEIYPISGRTNYNEKFKVKATLTVDTSSSTAYMDLNSLTSEDSAVYYCARSRANWDDYWGQGTTLTVSS VL: DIQMTQTTSSLSASLGDRVTISCSASQGISNYLNWYQQKPDGTFKLLIYYTSILHSGVPSRFSGSGSGTDYSLTISNLEPEDIATYYCQQYGWLPRTFGGGTKLEIKR
3 | 8.8 pM | 691 pM | < 400 pM | < 400 pM | – | – | ~1 pM | 148 pM and 161 pM and 158 pM | < 400 pM and 168 pM | AB0045 (antibody, V domains shown, Humanized, modified human IgG4 (S241P) / kappa; also called AB0045; humanized variant anti-MMP9 antibody) VH: QVQLQESGPGLVKPSETLSLTCTVSGFSLLSYGVHWVRQPPGKGLEWLGVIWTGGTTNYNSALMSRFTISKDDSKNTVYLKMNSLKTEDTAIYYCARYYYGMDYWGQGTLVTVSS VL: DIQMTQSPSSLSASVGDRVTITCKASQDVRNTVAWYQQKPGKAPKLLIYSSSYRNTGVPDRFSGSGSGTDFTLTISSLQAEDVAVYYCQQHYITPYTFGGGTKVEIKR
